Reference: PMC6689086
Values belong to the molecule of their own block, whether it stands above or below them.

Columns and labels:
[1] = biological target: Hsc82 C61-ATTO 550 (S. cerevisiae) (UniProt P15108)
[2] = biological target: Hsp82 C61-ATTO 550 (S. cerevisiae) (UniProt P02829)
[3] = biological target: Hsc82 C61-ATTO 550 (S. cerevisiae) (UniProt P15108); assay: FRET or BRET; FRET chase: tenfold excess of unlabeled Hsp90 added to the FRET complex preequilibrated 30 min with 2 mM ATP, 30 °C; apparent
[4] = biological target: Hsc82 C61-ATTO 550 (S. cerevisiae) (UniProt P15108); assay: FRET or BRET; FRET chase: tenfold excess of unlabeled Hsp90 added to the preformed FRET complex (400 nM), without nucleotide, 30 °C; apparent
[5] = biological target: Hsc82 C61-ATTO 550 (S. cerevisiae) (UniProt P15108); assay: FRET or BRET; subunit exchange after mixing of NTD- and MD-labeled dimers, no nucleotide; standard buffer (40 mM HEPES pH 7.5, 150 mM KCl, 5 mM MgCl2), 30 °C
[6] = biological target: Hsp82 protomer of the NM-FRET heterodimer (S. cerevisiae) (UniProt P02829); assay: as above
[7] = biological target: Hsp82 C61-ATTO 550 (S. cerevisiae) (UniProt P02829); assay: FRET or BRET; FRET chase: tenfold excess of unlabeled Hsp90 added to the FRET complex preequilibrated 30 min with 2 mM ATP, 30 °C; apparent
[8] = biological target: Hsp82 C61-ATTO 550 (S. cerevisiae) (UniProt P02829); assay: FRET or BRET; subunit exchange after mixing of NTD- and MD-labeled dimers, no nucleotide; standard buffer (40 mM HEPES pH 7.5, 150 mM KCl, 5 mM MgCl2), 30 °C

ATPγS-induced closing rate kapp of the Hsc82 NM-FRET dimer (C61-ATTO 550 with C381-ATTO 488 protomers) with 4 µM Cpr6, percentage of kapp without co-chaperone [1]: 108%
ATPγS-induced closing rate kapp of the Hsp82 NM-FRET dimer (C61-ATTO 550 with C385-ATTO 488 protomers) with 4 µM Cpr6, percentage of kapp without co-chaperone [2]: 239%
Molecule: Cpr6 (from UniProt P53691 1-371) (natural protein)

reopening of closed state rate, with ATP (kapp as headed; apparent half-life by the legend) [3]: 0.7 min⁻¹
reopening of closed state rate, without nucleotide (t½) [4]: 32 s
subunit exchange rate (kse) [5]: 0.037 s⁻¹
Molecule: Hsc82 C381-ATTO 488 (from UniProt P15108 1-705) (natural protein)

subunit exchange rate (kse) [6]: 0.03 s⁻¹
Molecule: Hsc82 protomer of the NM-FRET heterodimer (from UniProt P15108 1-705) (natural protein)

reopening of closed state rate, with ATP (kapp as headed; apparent half-life by the legend) [7]: 0.7 min⁻¹
subunit exchange rate (kse) [8]: 0.034 s⁻¹
Molecule: Hsp82 C385-ATTO 488 (from UniProt P02829 1-709) (natural protein)

ATPγS-induced closing rate kapp of the Hsc82 NM-FRET dimer (C61-ATTO 550 with C381-ATTO 488 protomers) with 4 µM Sba1, percentage of kapp without co-chaperone [1]: 78%
Molecule: p23/Sba1 (from UniProt P28707 1-216) (natural protein)

ATPγS-induced closing rate kapp of the Hsc82 NM-FRET dimer (C61-ATTO 550 with C381-ATTO 488 protomers) with 4 µM Sti1, percentage of kapp without co-chaperone [1]: 19%
ATPγS-induced closing rate kapp of the Hsp82 NM-FRET dimer (C61-ATTO 550 with C385-ATTO 488 protomers) with 4 µM Sti1, percentage of kapp without co-chaperone [2]: 40%
B1: Sti1 (natural protein)
chain: MSLTADEYKQQGNAAFTAKDYDKAIELFTKAIEVSETPNHVLYSNRSACYTSLKKFSDALNDANECVKINPSWSKGYNRLGAAHLGLGDLDEAESNYKKALELDASNKAAKEGLDQVHRTQQARQAQPDLGLTQLFADPNLIENLKKNPKTSEMMKDPQLVAKLIGYKQNPQAIGQDLFTDPRLMTIMATLMGVDLNMDDINQSNSMPKEPETSKSTEQKKDAEPQSDSTTSKENSSKAPQKEESKESEPMEVDEDDSKIEADKEKAEGNKFYKARQFDEAIEHYNKAWELHKDITYLNNRAAAEYEKGEYETAISTLNDAVEQGREMRADYKVISKSFARIGNAYHKLGDLKKTIEYYQKSLTEHRTADILTKLRNAEKELKKAEAEAYVNPEKAEEARLEGKEYFTKSDWPNAVKAYTEMIKRAPEDARGYSNRAAALAKLMSFPEAIADCNKAIEKDPNFVRAYIRKATAQIAVKEYASALETLDAARTKDAEVNNGSSAREIDQLYYKASQQRFQPGTSNETPEETYQRAMKDPEVAAIMQDPVMQSILQQAQQNPAALQEHMKNPEVFKKIQTLIAAGIIRTGR

ATPγS-induced closing rate kapp of the Hsc82 NM-FRET dimer (C61-ATTO 550 with C381-ATTO 488 protomers) with 4 µM Aha1, percentage of kapp without co-chaperone [1]: 616%
ATPγS-induced closing rate kapp of the Hsp82 NM-FRET dimer (C61-ATTO 550 with C385-ATTO 488 protomers) with 4 µM Aha1, percentage of kapp without co-chaperone [2]: 868%
B2: Aha1 (natural protein)
chain: MVVNNPNNWHWVDKNCIGWAKEYFKQKLVGVEAGSVKDKKYAKIKSVSSIEGDCEVNQRKGKVISLFDLKITVLIEGHVDSKDGSALPFEGSINVPEVAFDSEASSYQFDISIFKETSELSEAKPLIRSELLPKLRQIFQQFGKDLLATHGNDIQVPESQVKSNYTRGNQKSSFTEIKDSASKPKKNALPSSTSTSAPVSSTNKVPQNGSGNSTSIYLEPTFNVPSSELYETFLDKQRILAWTRSAQFFNSGPKLETKEKFELFGGNVISELVSCEKDKKLVFHWKLKDWSAPFNSTIEMTFHESQEFHETKLQVKWTGIPVGEEDRVRANFEEYYVRSIKLTFGFGAVL
